Assay results published in article PMC8348300.

Legend:
human alpha-thrombin [1] = target: T1, human alpha-thrombin (Homo sapiens, UniProt P00734;P00734 328-363;364-622); assay: SPR; 10 mM KCl; SPR (OpenSPR, immobilized thrombin): PBS, 0.005% Tween 20, 10 mM KCl, pH 7.4; TBA 1-16 uM (1-8 uM per Results), annealed 95 C 5 min then cooled to room temperat
human alpha-thrombin [2] = target: T1, human alpha-thrombin; assay: SPR; 10 mM KCl; text of 3.2 gives 99 nM; SPR (OpenSPR, immobilized thrombin): PBS, 0.005% Tween 20, 10 mM KCl, pH 7.4; TBA 1-16 uM (1-8 uM per Results), annealed 95 C 5 min then cooled to room temperat
human alpha-thrombin [3] = target: T1, human alpha-thrombin; assay: SPR; 10 mM KCl; text of 3.2 gives 97.5 nM; SPR (OpenSPR, immobilized thrombin): PBS, 0.005% Tween 20, 10 mM KCl, pH 7.4; TBA 1-16 uM (1-8 uM per Results), annealed 95 C 5 min then cooled to room temperat
human alpha-thrombin [4] = target: T1, human alpha-thrombin; assay: SPR; 10 mM KCl; text of 3.2 gives 99.8 nM; SPR (OpenSPR, immobilized thrombin): PBS, 0.005% Tween 20, 10 mM KCl, pH 7.4; TBA 1-16 uM (1-8 uM per Results), annealed 95 C 5 min then cooled to room temperat

| Binder | Kd (human alpha-thrombin [1]) | also measured |
| --- | --- | --- |
| GGTTGGTGTGGTTGG (structured_DNA) [TBA (native)] | 99.8 nM | – |
| GGTTGGTGTGGTTGG (structured_DNA, 5' Trebler dendrimer (three arms with terminal hydroxyls)) [5TG] | 102 nM | – |
| GGTTGGTGTGGTTGG (structured_DNA, 5' Long Trebler dendrimer (three arms with terminal hydroxyls)) [5LTG] | 99.6 nM | – |
| GGTTGGTGTGGTTGG (structured_DNA, T4: C5 NHS-carboxy-dT) [4NHT] | – | Kd (human alpha-thrombin [2]): 102 nM |
| GGTTGGTGTGGTTGG (structured_DNA, T13: C5 NHS-carboxy-dT) [13NHT] | – | Kd (human alpha-thrombin [3]): 99.7 nM |
| GGTTGGTGTGGTTGG (structured_DNA, T4 and T13: C5 NHS-carboxy-dT) [413NHT] | – | Kd (human alpha-thrombin [4]): 102 nM |
